This is an account of results in US20200397917, “ENGINEERED DNA BINDING PROTEINS” (Encoded Therapeutics, Inc., published 2020).

In data set [1] the target is EGR1-based eTF, 6 ZF (SCN1A) (synthetic). Nature of the data set: cell_activity; endogenous SCN1A, HEK293. The protocol: (§1) HEK293 cells were cultured per standard methods, and transfected (FuGene HD, Promega) with 3 ug of each tested activator, or an EGFP control. 48h following transfection, cells were collected and RNA was isolated (Qiagen RNeasy Mini kit), and DNase treated. RNA (3 ug) was reverse transcribed using OligoDT primers (Superscript IV, Invitrogen). cDNA samples were analyzed by qPCR using Phusion Polymerase (New England Biolabs) and SYBR Green I: (30s at 98° C., 40×[10 sec at 98° C., 15 sec at 68° C., 15 sec at 72° C.]). Primers against human SCN1A (5′-[…]-3′ (SEQ ID NO: 190); 5′-[…]-3′ (SEQ ID NO: 191)) were used to quantify levels of reporter-driven EGFP transcript, and relative levels of EGFP expression were determined by the delta-delta Ct method with GAPDH as a reference gene (5′-[…]-3′ (SEQ ID NO: 192); 5′-[…]-3′ (SEQ ID NO: 193)). Data are presented as fold changes relative to the control condition. SEQ ID NOs: 6, 7, and 9 are eTFs derived from human EGR1 protein and are engineered to bind to a target site near or at endogenous SCN1A gene, wherein the target site is SEQ ID NOs: 35-37.

For data set [2], the target named is EGR3-based eTF, 6 ZF (TRE) (synthetic). Nature of the data set: cell_activity; versus control SEQ 187. The protocol:
(§2) HEK293 cells were cultured per standard methods, and co-transfected (FuGene HD, Promega) with 1.5 ug of a reporter plasmid consisting of EGFP under the control of a tetracycline-responsive element (TRE) tight promoter, and 1.5 ug of each tested activator, or empty vector control (pUC57). 48h following transfection, cells were imaged using an epifluorescent microscope for GFP expression. The cells were collected and RNA was isolated (Qiagen RNeasy Mini kit), and DNase treated. RNA (3 ug) was reverse transcribed using OligoDT primers (Superscript IV, Invitrogen). cDNA samples were analyzed by qPCR using Phusion Polymerase (New England Biolabs) and SYBR Green I: (30s at 98° C., 40×[10 sec at 98° C., 15 sec at 65° C., 15 sec at 72° C.]). Primers against EGFP (5′-[…]-3′ (SEQ ID NO: 369); 5′-[…]-3′ (SEQ ID NO: 370)) were used to quantify levels of reporter-driven EGFP transcript, and relative levels of EGFP expression were determined by the delta-delta Ct method with GAPDH as a reference gene (5′-[…]-3′ (SEQ ID NO: 192); 5′-[…]-3′ (SEQ ID NO: 193)).
(§3) Data are presented as fold changes relative to the control condition.

A further data set has as its target ZF DBD-CITED4 (synthetic). The data set is described as follows: cell_activity; versus reporter alone. The note with it: tags: NLS; CITED4. The protocol:
as §2, §3

Another data set deals with ZF DBD-CITED2 (synthetic). Nature of the data set: cell_activity; versus reporter alone. The note with it: tags: NLS; CITED2. Here is the method: as §2, §3
Data set [3] deals with EGR1-based eTF, synthetic 6-ZF DBD (synthetic). The data set is described as follows: cell_activity; EGFP reporter. Here is the method: as §2, §3
The target in data set [4] is EGR1-based eTF, duplicated 6 ZF (TRE) (synthetic). The data set is described as follows: cell_activity; EGFP reporter. Here is the method: as §2, §3
A further data set has as its target ZF DBD-VP64 (synthetic). Nature of the data set: cell_activity; EGFP reporter; about 40-fold in FIG. 33B. The note with it: tags: NLS. Here is the method:
as §2, §3

A further data set has as its target EGR1-based eTF, 3 ZF (synthetic, UniProt P18146 SEQ:1-543). The data set is described as follows: cell_activity; EGFP reporter. The protocol:
as §2, §3

The target in data set [5] is EGR1-based eTF, 9 ZF (SCN1A) (synthetic). The data set is described as follows: cell_activity; endogenous SCN1A, HEK293. Here is the method: as §1
EGR1-based eTF, 9 ZF (SCN1A) (synthetic), sequence (chain, as listed by the source): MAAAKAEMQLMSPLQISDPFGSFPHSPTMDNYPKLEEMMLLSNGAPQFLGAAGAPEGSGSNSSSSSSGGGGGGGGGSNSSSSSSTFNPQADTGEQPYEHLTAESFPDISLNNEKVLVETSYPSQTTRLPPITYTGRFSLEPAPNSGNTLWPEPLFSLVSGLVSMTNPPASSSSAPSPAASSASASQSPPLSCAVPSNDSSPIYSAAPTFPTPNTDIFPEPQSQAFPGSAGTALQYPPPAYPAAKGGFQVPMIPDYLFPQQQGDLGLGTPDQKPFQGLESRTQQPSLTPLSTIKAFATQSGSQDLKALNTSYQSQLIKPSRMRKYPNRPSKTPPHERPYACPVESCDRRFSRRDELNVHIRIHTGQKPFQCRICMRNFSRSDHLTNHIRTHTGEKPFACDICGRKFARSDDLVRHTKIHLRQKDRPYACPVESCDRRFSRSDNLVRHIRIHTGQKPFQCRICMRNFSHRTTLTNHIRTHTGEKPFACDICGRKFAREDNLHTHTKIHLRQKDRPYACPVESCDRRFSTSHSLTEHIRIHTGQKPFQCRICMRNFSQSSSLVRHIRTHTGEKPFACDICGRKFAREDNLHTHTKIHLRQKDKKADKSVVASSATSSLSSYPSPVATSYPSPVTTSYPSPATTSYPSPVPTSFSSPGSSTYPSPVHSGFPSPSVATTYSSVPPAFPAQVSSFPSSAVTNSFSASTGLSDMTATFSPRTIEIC

EGR1-based eTF, duplicated 6 ZF (TRE) (synthetic), sequence (chain, as listed by the source): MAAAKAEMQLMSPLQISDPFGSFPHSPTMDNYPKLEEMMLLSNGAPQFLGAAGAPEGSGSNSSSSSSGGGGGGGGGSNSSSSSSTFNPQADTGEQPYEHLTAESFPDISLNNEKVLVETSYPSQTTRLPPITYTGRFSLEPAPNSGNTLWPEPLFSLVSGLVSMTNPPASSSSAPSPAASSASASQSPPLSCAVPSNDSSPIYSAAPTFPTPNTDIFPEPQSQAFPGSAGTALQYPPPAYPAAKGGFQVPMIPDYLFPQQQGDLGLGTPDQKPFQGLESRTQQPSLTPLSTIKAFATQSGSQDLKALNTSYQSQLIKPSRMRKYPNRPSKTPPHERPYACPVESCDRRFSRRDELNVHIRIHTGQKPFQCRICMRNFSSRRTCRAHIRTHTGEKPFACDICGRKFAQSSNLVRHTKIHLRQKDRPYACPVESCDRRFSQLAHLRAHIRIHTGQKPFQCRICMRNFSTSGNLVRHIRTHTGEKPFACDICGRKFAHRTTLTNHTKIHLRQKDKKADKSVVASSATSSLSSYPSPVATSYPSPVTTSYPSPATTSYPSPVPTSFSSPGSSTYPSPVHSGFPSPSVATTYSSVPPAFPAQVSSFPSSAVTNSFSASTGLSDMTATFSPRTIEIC
EGR3-based eTF, 6 ZF (TRE) (synthetic), sequence (chain, as listed by the source): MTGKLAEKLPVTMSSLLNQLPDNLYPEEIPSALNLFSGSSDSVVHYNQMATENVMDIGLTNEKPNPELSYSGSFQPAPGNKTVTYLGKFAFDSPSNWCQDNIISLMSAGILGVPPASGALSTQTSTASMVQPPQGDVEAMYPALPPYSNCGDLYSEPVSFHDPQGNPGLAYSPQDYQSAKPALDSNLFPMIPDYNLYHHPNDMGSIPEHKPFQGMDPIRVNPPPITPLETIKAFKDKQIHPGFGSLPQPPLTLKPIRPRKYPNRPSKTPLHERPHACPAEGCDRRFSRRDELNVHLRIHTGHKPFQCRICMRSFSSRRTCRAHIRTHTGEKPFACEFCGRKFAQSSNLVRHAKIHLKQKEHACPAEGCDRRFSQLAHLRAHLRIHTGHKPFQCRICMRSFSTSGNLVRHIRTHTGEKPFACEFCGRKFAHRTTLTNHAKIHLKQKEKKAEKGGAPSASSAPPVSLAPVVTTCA
EGR1-based eTF, synthetic 6-ZF DBD (synthetic), sequence (chain, as listed by the source): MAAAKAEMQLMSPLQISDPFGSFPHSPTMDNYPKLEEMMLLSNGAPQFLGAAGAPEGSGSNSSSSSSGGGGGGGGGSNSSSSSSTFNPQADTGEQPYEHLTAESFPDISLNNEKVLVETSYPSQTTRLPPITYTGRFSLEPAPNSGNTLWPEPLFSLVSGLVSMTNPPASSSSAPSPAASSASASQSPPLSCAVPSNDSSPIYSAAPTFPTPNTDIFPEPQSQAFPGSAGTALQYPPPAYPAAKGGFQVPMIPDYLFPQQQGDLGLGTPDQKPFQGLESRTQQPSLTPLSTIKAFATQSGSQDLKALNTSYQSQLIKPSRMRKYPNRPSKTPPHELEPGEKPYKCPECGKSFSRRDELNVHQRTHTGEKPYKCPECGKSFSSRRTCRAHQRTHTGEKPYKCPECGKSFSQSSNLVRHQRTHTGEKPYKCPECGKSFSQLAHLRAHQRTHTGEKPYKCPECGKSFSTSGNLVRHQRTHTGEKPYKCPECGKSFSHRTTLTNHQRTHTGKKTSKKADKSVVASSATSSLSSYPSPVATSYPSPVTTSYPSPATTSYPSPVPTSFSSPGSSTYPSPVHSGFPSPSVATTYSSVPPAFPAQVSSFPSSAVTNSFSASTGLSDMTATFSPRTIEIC
EGR1-based eTF, 3 ZF, sequence (P18146 other isoform, or with tags, fused parts or gaps): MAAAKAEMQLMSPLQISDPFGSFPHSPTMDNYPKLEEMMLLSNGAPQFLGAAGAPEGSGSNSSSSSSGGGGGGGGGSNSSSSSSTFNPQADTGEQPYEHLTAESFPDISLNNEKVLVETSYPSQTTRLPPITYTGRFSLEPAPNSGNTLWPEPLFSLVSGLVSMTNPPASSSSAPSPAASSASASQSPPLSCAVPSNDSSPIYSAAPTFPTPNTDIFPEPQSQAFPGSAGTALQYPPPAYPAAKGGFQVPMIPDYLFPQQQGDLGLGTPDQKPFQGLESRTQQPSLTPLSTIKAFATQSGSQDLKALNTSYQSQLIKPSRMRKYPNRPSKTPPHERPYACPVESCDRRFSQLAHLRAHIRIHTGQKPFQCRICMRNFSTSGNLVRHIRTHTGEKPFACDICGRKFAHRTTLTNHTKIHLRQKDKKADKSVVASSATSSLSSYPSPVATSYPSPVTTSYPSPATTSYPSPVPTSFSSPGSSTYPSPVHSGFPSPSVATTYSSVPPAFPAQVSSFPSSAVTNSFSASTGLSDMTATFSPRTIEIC
ZF DBD-CITED4 (synthetic), sequence (chain, as listed by the source): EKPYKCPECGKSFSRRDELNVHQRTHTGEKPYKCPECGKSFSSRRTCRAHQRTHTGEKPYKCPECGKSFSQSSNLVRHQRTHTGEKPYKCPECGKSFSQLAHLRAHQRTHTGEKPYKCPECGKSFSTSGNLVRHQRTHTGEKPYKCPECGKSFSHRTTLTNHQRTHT
EGR1-based eTF, 6 ZF (SCN1A) (synthetic), sequence (chain, as listed by the source): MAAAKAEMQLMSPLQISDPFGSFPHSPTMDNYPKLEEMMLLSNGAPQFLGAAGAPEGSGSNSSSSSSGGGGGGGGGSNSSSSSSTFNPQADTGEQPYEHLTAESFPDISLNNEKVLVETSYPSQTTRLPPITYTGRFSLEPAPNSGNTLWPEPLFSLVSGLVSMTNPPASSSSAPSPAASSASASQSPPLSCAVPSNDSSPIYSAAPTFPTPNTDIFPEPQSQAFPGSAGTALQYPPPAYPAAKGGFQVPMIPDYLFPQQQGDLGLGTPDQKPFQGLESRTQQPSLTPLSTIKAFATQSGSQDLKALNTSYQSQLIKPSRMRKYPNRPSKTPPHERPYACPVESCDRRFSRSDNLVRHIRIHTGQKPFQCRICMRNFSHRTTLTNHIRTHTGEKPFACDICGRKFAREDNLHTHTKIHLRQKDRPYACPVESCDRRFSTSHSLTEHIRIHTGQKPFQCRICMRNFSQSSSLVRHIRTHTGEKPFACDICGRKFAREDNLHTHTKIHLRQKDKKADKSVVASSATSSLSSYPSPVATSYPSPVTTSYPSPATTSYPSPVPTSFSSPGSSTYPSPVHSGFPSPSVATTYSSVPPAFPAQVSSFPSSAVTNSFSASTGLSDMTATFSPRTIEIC

B1: SCN1A site 36 (dsDNA)
DNA 1: TAGGTACCATAGAGTGAG
DNA 2: CTCACTCTATGGTACCTA
Turning to B1, the activity in data set [1] was approximately 7 fold SCN1A.

B2: TRE reporter site (dsDNA)
DNA 1: AGTGATAGAGAACGTATG
DNA 2: CATACGTTCTCTATCACT
For B2, the activity is not below 5 fold EGFP in data set [2]; approximately 10 fold EGFP with ZF DBD-CITED4; approximately 15 fold EGFP in the data set with ZF DBD-CITED2; 10 fold EGFP in data set [3]; 15 fold EGFP in data set [4]; 70 fold EGFP with ZF DBD-VP64.

B3: TRE reporter 9-nt site (dsDNA)
DNA 1: AGTGATAGA
DNA 2: TCTATCACT
Regarding B3, the activity with EGR1-based eTF, 3 ZF stood at 3 fold EGFP.

B4: SCN1A site 37 (dsDNA)
DNA 1: TAGGTACCATAGAGTGAGGCGAGGATG
DNA 2: CATCCTCGCCTCACTCTATGGTACCTA
As for B4, the activity in [5] was approximately 20 fold SCN1A.
